Laboratory results taken from paper doi:10.1101/2021.12.20.473529 (bioRxiv, 2021).

Target: the molecule itself
Assay: SEC-MALS

Protein | stoichiometry N
HNF-1A DD-DBD (HNF-1A 1-279), wild type (domain or fragment, human, UniProt P20823 1-279, looked up) MVSKLSQLQTELLAALLESGLSKEALIQALGEPGPYLLAGEGPLDKGESCGGGRGELAELPNGLGETRGSEDETDDDGEDFTPPILKELENLSPEEAAHQKAVVETLLQEDPWRVAKMVKSYLQQHNIPQREVVDTTGLNQSHLSQHLNKGTPMKTQKRAALYTWYVRKQREVAQQFTHAGQGGLIEEPTGDELPTKKGRRNRFKWGPASQQILFQAYERQKNPSKEERETLVEECNRAECIQRGVSPSQAQGLGSNLVTEVRVYNWFANRRKEEAFRH | 2
HNF-1A DD-DBD/N266S (domain or fragment, human, UniProt P20823 1-279, looked up) MVSKLSQLQTELLAALLESGLSKEALIQALGEPGPYLLAGEGPLDKGESCGGGRGELAELPNGLGETRGSEDETDDDGEDFTPPILKELENLSPEEAAHQKAVVETLLQEDPWRVAKMVKSYLQQHNIPQREVVDTTGLNQSHLSQHLNKGTPMKTQKRAALYTWYVRKQREVAQQFTHAGQGGLIEEPTGDELPTKKGRRNRFKWGPASQQILFQAYERQKNPSKEERETLVEECNRAECIQRGVSPSQAQGLGSNLVTEVRVYSWFANRRKEEAFRH | 2
HNF-1A DD-DBD/R263C (domain or fragment, human, UniProt P20823 1-279, looked up) MVSKLSQLQTELLAALLESGLSKEALIQALGEPGPYLLAGEGPLDKGESCGGGRGELAELPNGLGETRGSEDETDDDGEDFTPPILKELENLSPEEAAHQKAVVETLLQEDPWRVAKMVKSYLQQHNIPQREVVDTTGLNQSHLSQHLNKGTPMKTQKRAALYTWYVRKQREVAQQFTHAGQGGLIEEPTGDELPTKKGRRNRFKWGPASQQILFQAYERQKNPSKEERETLVEECNRAECIQRGVSPSQAQGLGSNLVTEVCVYNWFANRRKEEAFRH | 2
